How the values were obtained:
[1] = molecular target: T1, human LAG-3 (cell surface) (human, UniProt P18627); assay: FACS, CHO-human LAG-3
T1 chain: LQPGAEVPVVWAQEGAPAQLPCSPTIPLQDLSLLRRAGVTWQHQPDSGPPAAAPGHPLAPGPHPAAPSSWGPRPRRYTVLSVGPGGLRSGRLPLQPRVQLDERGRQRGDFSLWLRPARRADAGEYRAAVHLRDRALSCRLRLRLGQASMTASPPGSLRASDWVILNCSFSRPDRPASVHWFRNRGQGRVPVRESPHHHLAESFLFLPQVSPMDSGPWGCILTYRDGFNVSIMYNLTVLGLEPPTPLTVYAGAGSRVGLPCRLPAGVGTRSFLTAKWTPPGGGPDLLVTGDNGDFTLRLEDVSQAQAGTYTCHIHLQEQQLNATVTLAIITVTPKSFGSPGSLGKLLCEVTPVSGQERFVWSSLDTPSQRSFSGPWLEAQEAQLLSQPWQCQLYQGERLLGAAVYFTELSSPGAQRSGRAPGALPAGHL

[2] = molecular target: T2, recombinant human LAG-3 fusion protein (human, UniProt P18627); assay: SPR
T2 chain: T1 chain

B1: 17E5 (antibody)
chain 1: not shown
chain 2: EIVLTQSPATLSLSPGERATLSCRASQSVSSYLAWYQQKPGQAPRLLIYDASNRATGIPARFSGSGSGTDFTLTISSLEPEDFAVYYCQQRSNWPITFGQGTRLEIK
EC50 [1]: 12.3 nM | Kd [2]: 4.53 nM

From patent publication US11236163
